Laboratory results: US20220135701A1 (Genentech, published 2022)
Read-outs that look alike come from different tables or passages of the source.

B1: h9E3.FN.v1 (antibody, V domains shown)
VH: EQQLVESGGGLIQPGGSLRLSCAVSGFSLSSNAMSWVRQAPGKGLEWIGIISSSGSTYSASWAKGRFTISKDSSKNTMYLQMNSLRAEDTAVYFCARVGFFVGYGAYDYGIIHRLDLWGQGTLVTVSS
VL: DAQLTQSPSTLSASVGDRVTITCQSSKSIYNNNWLSWYQQKPGKPPKLLIYDASDLASGVPSRFSGSGSGTEFTLTISSLQPDDFATYYCAGGYSGDSDYAFGGGTKVEIK
notes: also called h9E3.FN.V1 (Parent); 9E3.FN Humanized mAb V1
B2: h9E3.FN.v16 (antibody, V domains shown)
VH: EVQLVESGGGLIQPGGSLRLSCAASGFSLSSNAMSWVRQAPGKGLEWVSIISSSGSTYSASWAKGRFTISKDNSKNTLYLQMNSLRAEDTAVYYCARVGFFVGYGAYDYGIIHRLDLWGQGTLVTVSS
VL: DIQLTQSPSTLSASVGDRVTITCQSSKSIYNNNWLSWYQQKPGKPPKLLIYDASDLASGVPSRFSGSGSGTEFTLTISSLQPDDFATYYCAGGYSGDSDYAFGGGTKVEIK
notes: Humanized, human IgG1; also called 9E3.FN Humanized polished mAb
B3: h10F7.v1 (antibody, V domains shown)
VH: EQQLVESGGGLVQPGGSLRLSCAVSGFSLSGYAMSWVRQAPGKGLEYIGVISSSGSSYYPSWAKGRFTISKDSSKNTVYLQMGSLRAEDMAVYFCARVQFYVGYAVYGYGIIDRLDLWGQGTLVTVSS
VL: DAVLTQSPDSLAVSLGERATINCQSSKSVYNNNWLSWYQQKPGQPPKLLIYRASTLESGVPDRFSGSGSGTDFTLTISSLQAEDVAVYFCAGGYSSSSSANAFGGGTKVEIK
notes: also called h10F7.V1 (Parent); 10F7 Humanized mAb V1

What was measured:
human MerTK [1] = target: T1, human MerTK (human, UniProt Q12866 26-499); experiment: SPR BIAcore T200, Ab captured, 37C
T1 construct: also called HuMER
T1 sequence: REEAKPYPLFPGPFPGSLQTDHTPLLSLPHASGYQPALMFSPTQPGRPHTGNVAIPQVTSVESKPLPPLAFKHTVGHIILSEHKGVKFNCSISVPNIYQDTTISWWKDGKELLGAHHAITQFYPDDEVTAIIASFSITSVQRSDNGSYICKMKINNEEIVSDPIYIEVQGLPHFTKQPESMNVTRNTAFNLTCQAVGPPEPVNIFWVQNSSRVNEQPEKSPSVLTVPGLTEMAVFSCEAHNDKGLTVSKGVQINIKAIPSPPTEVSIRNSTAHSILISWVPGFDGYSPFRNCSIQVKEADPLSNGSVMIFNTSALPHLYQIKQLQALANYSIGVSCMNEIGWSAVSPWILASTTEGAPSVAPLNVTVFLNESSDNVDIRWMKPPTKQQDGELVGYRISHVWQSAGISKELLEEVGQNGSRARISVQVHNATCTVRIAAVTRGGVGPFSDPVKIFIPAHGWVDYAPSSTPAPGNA
Procedure: (§1) Each rabbit and humanized antibody was subjected to a binding assay to determine its affinity to MerTK derived from various species.
(§2) All binding affinity determinations were obtained using Surface Plasmon Resonance (SPR) measurements from a BIAcore™-T200 instrument. Briefly, each rabbit or humanized antibody was captured to achieve approximately 100 RU (Response Units). Then, 3-fold serial dilutions of MerTK from various species (0.4 nM to 100 nM) diluted in HBS-EP buffer (0.01M HEPES pH 7.4, 0.15M NaCl, 3 mM EDTA and 0.05% v/v surfactant P20) was injected into the BIAcore™-T200 instrument at 25° C. or 37° C. with a flow rate of 30 μl/min. Association rates (kₒₙ) and dissociation rates (koff) were calculated using a simple one-to-one Langmuir binding model (BIAcore T200 evaluation software version 2.0). The equilibrium dissociation constant (KD) was calculated as the ratio koff/kₒₙ.

mouse MerTK [2] = target: T2, mouse MerTK (mouse, UniProt Q60805 23-496); experiment: SPR BIAcore T200, Ab captured, 37C
T2 construct: also called MuMER
T2 sequence (looked up): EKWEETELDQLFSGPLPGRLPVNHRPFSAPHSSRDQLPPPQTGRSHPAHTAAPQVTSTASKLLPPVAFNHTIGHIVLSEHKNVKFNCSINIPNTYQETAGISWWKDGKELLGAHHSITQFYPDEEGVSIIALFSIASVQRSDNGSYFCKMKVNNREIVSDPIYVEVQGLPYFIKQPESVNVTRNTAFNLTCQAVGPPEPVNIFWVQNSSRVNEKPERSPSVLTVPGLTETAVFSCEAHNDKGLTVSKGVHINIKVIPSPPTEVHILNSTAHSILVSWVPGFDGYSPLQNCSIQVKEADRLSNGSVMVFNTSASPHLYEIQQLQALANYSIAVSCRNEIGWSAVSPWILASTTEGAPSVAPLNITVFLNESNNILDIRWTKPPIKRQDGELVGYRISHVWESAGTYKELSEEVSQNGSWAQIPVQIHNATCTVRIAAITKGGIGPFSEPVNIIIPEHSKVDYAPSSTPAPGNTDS
Procedure: as §1, §2

cynomolgus monkey MerTK [3] = target: T3, cynomolgus monkey MerTK (cynomolgus monkey, UniProt A0A2K5V1H9 32-505); experiment: SPR BIAcore T200, Ab captured, 37C
T3 construct: Soluble analyte in SPR; also called Cyno MerTK
T3 sequence: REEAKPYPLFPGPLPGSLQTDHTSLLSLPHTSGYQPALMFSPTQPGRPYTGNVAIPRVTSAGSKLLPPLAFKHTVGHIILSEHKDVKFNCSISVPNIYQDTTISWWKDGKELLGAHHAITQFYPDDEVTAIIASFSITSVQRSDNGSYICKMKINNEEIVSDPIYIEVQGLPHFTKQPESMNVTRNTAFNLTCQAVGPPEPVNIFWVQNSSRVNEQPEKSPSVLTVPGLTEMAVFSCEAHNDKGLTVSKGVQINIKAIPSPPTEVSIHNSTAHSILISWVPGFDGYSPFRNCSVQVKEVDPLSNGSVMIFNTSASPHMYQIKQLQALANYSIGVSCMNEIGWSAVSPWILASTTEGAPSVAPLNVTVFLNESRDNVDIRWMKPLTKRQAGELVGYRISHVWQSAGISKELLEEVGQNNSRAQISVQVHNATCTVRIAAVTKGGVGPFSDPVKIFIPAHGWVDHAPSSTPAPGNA
Procedure: as §1, §2

rat MerTK [4] = target: T4, rat MerTK (rat, UniProt P57097 23-496, limits assumed); experiment: SPR BIAcore T200, Ab captured, 37C
T4 construct: Soluble analyte in SPR
T4 sequence (looked up): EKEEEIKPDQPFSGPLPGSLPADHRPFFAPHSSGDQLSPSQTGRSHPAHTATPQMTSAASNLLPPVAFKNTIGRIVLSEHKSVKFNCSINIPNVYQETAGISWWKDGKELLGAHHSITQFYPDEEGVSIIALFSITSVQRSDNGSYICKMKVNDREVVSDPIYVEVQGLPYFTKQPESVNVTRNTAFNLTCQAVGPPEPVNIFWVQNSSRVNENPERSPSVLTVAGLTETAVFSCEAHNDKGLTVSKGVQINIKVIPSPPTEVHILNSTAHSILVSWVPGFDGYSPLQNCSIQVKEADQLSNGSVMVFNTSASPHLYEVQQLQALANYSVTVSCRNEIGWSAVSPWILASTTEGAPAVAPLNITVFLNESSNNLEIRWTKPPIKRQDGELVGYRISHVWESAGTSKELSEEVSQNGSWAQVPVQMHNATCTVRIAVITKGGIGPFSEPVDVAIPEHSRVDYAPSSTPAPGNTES
Procedure: as §1, §2

human MerTK [5] = target: T1, human MerTK; experiment: SPR BIAcore T200, Ab captured, 37C; remark: listed apart in the source
Procedure: as §2

mouse MerTK [6] = target: T2, mouse MerTK; experiment: SPR BIAcore T200, Ab captured, 37C; remark: listed apart in the source
Procedure: as §2

cynomolgus monkey MerTK [7] = target: T3, cynomolgus monkey MerTK; experiment: SPR BIAcore T200, Ab captured, 37C; remark: listed apart in the source
Procedure: as §2

rat MerTK [8] = target: T4, rat MerTK; experiment: SPR BIAcore T200, Ab captured, 37C; remark: listed apart in the source
Procedure: as §2

human MerTK [9] = target: T1, human MerTK; experiment: SPR BIAcore T200, Ab captured, 37C; remark: listed apart in the source
[10] = target: T5, human MerTK on human macrophages (human, UniProt Q12866 21-999); experiment: cell-based or functional assay
T5 sequence: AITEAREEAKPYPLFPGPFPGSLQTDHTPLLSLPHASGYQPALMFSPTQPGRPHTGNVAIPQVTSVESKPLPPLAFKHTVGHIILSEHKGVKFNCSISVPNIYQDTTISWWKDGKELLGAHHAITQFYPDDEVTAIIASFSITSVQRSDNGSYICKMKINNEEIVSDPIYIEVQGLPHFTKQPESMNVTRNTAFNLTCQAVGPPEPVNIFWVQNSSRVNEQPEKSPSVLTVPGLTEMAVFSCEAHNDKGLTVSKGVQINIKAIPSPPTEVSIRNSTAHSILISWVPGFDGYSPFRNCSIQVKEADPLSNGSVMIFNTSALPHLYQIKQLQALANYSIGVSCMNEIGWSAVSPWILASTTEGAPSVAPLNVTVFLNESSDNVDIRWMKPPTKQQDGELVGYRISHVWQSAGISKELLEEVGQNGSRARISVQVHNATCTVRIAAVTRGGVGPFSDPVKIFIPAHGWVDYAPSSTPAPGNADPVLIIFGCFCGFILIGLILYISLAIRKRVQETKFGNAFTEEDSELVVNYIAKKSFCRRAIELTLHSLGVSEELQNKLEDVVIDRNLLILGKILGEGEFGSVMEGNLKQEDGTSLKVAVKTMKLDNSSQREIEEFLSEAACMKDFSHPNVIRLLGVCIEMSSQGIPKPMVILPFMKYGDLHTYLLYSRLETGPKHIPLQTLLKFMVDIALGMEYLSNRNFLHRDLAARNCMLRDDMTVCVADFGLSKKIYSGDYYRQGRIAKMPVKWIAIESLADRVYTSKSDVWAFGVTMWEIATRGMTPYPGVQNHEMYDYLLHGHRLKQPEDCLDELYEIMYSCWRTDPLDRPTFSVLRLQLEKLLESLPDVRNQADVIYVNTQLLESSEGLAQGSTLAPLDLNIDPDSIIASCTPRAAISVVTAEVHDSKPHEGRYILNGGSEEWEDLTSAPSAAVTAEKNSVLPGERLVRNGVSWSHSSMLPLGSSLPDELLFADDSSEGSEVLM

Binder	Kd (human MerTK [1]) [nM]	Kd (mouse MerTK [2]) [nM]	Kd (cynomolgus monkey MerTK [3]) [nM]	Kd (rat MerTK [4]) [nM]	Kd (human MerTK [5]) [nM]	Kd (mouse MerTK [6]) [nM]	Kd (cynomolgus monkey MerTK [7]) [nM]	Kd (rat MerTK [8]) [nM]	Kd (human MerTK [9]) [nM]	IC50 (nM), efferocytosis by human macrophages, Average (3 Donors) [10] [nM]	IC50 (nM), efferocytosis by human macrophages, Donor A [10] [nM]	IC50 (nM), efferocytosis by human macrophages, Donor C [10] [nM]	Max Inhibition (%), efferocytosis by human macrophages, Average (3 Donors) [10] [%]	Max Inhibition (%), efferocytosis by human macrophages, Donor A [10] [%]	Max Inhibition (%), efferocytosis by human macrophages, Donor C [10] [%]
B1	11.2	1.4	4.8	3.8	10.6	1.5	4.5	3.7	12.2	–	–	–	–	–	–
B2	5.8	1.1	2.5	3	–	–	–	–	–	1.02	0.59	1.5	57	58	55
B3	6.7	1.5	3	4.1	7.1	1.5	3.1	3.6	7.3	–	–	–	–	–	–
